Experimental data from the Immune Epitope Database (IEDB).

Legend:
HLA-A*01:01 [1] = assay: IEDB peptide-MHC binding, purified MHC/competitive/fluorescence; ≥ and ≤ were set here for values at or beyond the usual limits of such assays
HLA-A*02:01 [2] = assay: as above
HLA-A*01:01 [3] = assay: IEDB peptide-MHC binding, purified MHC/direct/fluorescence; filed as Kd, often an IC50 or EC50 that approximates it; ≥ and ≤ were set here for values at or beyond the usual limits of such assays
HLA-A*02:01 [4] = assay: as above
HLA-A*03:01 = assay: as above
HLA-A*11:01 = assay: as above
HLA-A*24:03 = assay: as above
HLA-A*26:01 = assay: as above
HLA-A*30:01 = assay: as above
HLA-A*31:01 = assay: as above
HLA-A*69:01 = assay: as above
HLA-B*07:02 = assay: as above
HLA-B*08:01 = assay: as above
HLA-B*15:01 = assay: as above
HLA-B*27:05 = assay: as above
HLA-B*40:01 = assay: as above
HLA-B*44:02 = assay: as above; details: source organism: Vibrio cholerae
HLA-B*58:01 = assay: as above
[5] = source organism: Zaire ebolavirus
[6] = source organism: Vibrio cholerae
[7] = source organism: Vaccinia virus WR
[8] = source organism: Pseudomonas aeruginosa

**Q.** How did the IC50 (HLA-A*01:01 [1]; [5]) turn out when YSTTIRYQA was run?
**A.** Its IC50 is no less than 207 µM.

**Q.** What about the IC50 (HLA-A*02:01 [2]; [5]) of the same sequence?
**A.** Its IC50 is 42.3 µM.

**Q.** RPRIRLSAP was tested. Which Kd (HLA-A*01:01 [3]; [6]) did it give?
**A.** The Kd was no less than 20 µM.

**Q.** What about the Kd (HLA-A*02:01 [4]; [6]) of the same sequence?
**A.** The Kd was no less than 20 µM.

**Q.** And the Kd (HLA-A*03:01; [6])?
**A.** Its Kd is no less than 20 µM.

**Q.** What about the Kd (HLA-A*11:01; [6]) of the same sequence?
**A.** The Kd was no less than 20 µM.

**Q.** What about the Kd (HLA-A*24:03; [6]) of the same sequence?
**A.** Its Kd is no less than 20 µM.

**Q.** And the Kd (HLA-A*26:01; [6])?
**A.** Its Kd is no less than 20 µM.

**Q.** And the Kd (HLA-A*30:01; [6])?
**A.** Its Kd is 3.77 µM.

**Q.** What about the Kd (HLA-A*31:01; [6]) of the same sequence?
**A.** The Kd was no less than 20 µM.

**Q.** And the Kd (HLA-A*69:01; [6])?
**A.** Its Kd is no less than 20 µM.

**Q.** What about the Kd (HLA-B*07:02; [6]) of the same sequence?
**A.** Its Kd is 0.0278 µM.

**Q.** And the Kd (HLA-B*08:01; [6])?
**A.** Its Kd is 1.89 µM.

**Q.** And the Kd (HLA-B*15:01; [6])?
**A.** Its Kd is no less than 20 µM.

**Q.** And the Kd (HLA-B*27:05; [6])?
**A.** The Kd was no less than 20 µM.

**Q.** And the Kd (HLA-B*40:01; [6])?
**A.** The Kd was no less than 20 µM.

**Q.** And the Kd (HLA-B*44:02)?
**A.** Its Kd is no less than 20 µM.

**Q.** And the Kd (HLA-B*58:01; [6])?
**A.** The Kd was no less than 20 µM.

**Q.** PIDSHKGYV was tested. Which IC50 (HLA-A*01:01 [1]; [7]) did it give?
**A.** Its IC50 is 29.4 µM.

**Q.** What about the IC50 (HLA-A*02:01 [2]; [7]) of the same sequence?
**A.** Its IC50 is no less than 129 µM.

**Q.** RSFAERLDR was tested. Which Kd (HLA-A*01:01 [3]; [8]) did it give?
**A.** Its Kd is no less than 20 µM.

**Q.** And the Kd (HLA-A*02:01 [4]; [8])?
**A.** Its Kd is no less than 20 µM.

**Q.** And the Kd (HLA-A*03:01; [8])?
**A.** The Kd was 0.286 µM.

**Q.** What about the Kd (HLA-A*11:01; [8]) of the same sequence?
**A.** The Kd was 0.117 µM.

**Q.** What about the Kd (HLA-A*24:03; [8]) of the same sequence?
**A.** The Kd was no less than 20 µM.

**Q.** What about the Kd (HLA-A*26:01; [8]) of the same sequence?
**A.** The Kd was no less than 20 µM.

**Q.** What about the Kd (HLA-A*30:01; [8]) of the same sequence?
**A.** Its Kd is 0.344 µM.

**Q.** And the Kd (HLA-A*31:01; [8])?
**A.** The Kd was 0.0287 µM.

**Q.** And the Kd (HLA-A*69:01; [8])?
**A.** The Kd was no less than 20 µM.

**Q.** And the Kd (HLA-B*07:02; [8])?
**A.** The Kd was no less than 20 µM.

**Q.** What about the Kd (HLA-B*08:01; [8]) of the same sequence?
**A.** Its Kd is no less than 20 µM.

**Q.** And the Kd (HLA-B*15:01; [8])?
**A.** Its Kd is no less than 20 µM.

**Q.** What about the Kd (HLA-B*27:05; [8]) of the same sequence?
**A.** Its Kd is 3.46 µM.

**Q.** What about the Kd (HLA-B*40:01; [8]) of the same sequence?
**A.** Its Kd is no less than 20 µM.

**Q.** What about the Kd (HLA-B*58:01; [8]) of the same sequence?
**A.** Its Kd is no less than 20 µM.
